The target of the test is human CD3 epsilon (CD3ε) (human, UniProt P07766 23-207). The test can be described thus: binding kinetics.
Sequence of human CD3 epsilon (CD3ε) (P07766 23-207): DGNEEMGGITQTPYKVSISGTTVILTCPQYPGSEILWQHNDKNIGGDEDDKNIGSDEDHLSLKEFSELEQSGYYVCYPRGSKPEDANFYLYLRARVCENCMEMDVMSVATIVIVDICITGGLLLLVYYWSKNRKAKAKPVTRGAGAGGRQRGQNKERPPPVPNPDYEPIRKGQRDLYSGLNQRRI

B1: 160C9_T4h (bispecific antibody)
light: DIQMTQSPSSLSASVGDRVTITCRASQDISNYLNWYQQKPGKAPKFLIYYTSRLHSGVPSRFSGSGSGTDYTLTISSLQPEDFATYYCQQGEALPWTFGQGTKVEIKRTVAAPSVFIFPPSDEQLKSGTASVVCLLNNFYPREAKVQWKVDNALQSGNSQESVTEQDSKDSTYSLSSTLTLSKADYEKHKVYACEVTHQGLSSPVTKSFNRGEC
heavy 1: QVQLVQSGAEVKKPGASVKVSCKASGYKFTSYWIEWVRQAPGQGLEWIGEILPGSDTTNYNEKFKDRVTFTSDTSTSTVYMELSSLRSEDTAVYYCARDRGNYRAWFGYWGQGTLVTVSSASTKGPSVFPLAPSSKSTSGGTAALGCLVKDYFPEPVTVSWNSGALTSGVHTFPAVLQSSGLYSLSSVVTVPSSSLGTQTYICNVNHKPSNTKVDKKVEPKSCDKTHTCPPCPAPEAAGAPSVFLFPPKPKDTLMISRTPEVTCVVVDVSHEDPEVKFNWYVDGVEVHNAKTKPREEQYNSTYRVVSVLTVLHQDWLNGKEYKCKVSNKALPAPIEKTISKAKGQPREPQVYTLPPSRDELTKNQVSLSCAVKGFYPSDIAVEWESNGQPENNYKTTPPVLDSDGSFFLVSKLTVDKSRWQQGNVFSCSVMHEALHNHYTQKSLSLSPG
heavy 2: not shown
In turn, B1 showed a Kd of 0.012 µM.
